From the Human Domainome abundance scans (Beltran et al. 2025)
± gives the uncertainty stated by the source.

B1: Protein piccolo, residues 1058 to 1114; numbered along this chain, Q9Y6V0 (parent)
chain: TCPLCKTELNIGSKDPPNFNTCTECKNQVCNLCGFNPTPHLTEIQEWLCLNCQTQRA

Variants of: B1
Assay: abundance fitness (aPCA) (normalised: wild type 0, dead -1); higher = more abundant; growth selection in yeast, the domain comes from the species named
Settings: Homo sapiens

| Variant | abundance fitness |
| --- | --- |
| TCPLCKTELNIGSKDPPNFNTCTECKNQVCNLCGFNPTPHNTEIQEWLCLNCQTQRA [L41N] | 0.128 ± 0.2 |
| TCPLCKTELNIGSKDPPNFNTCTECKNQVCNLCGFNPTPHPTEIQEWLCLNCQTQRA [L41P] | -0.037 ± 0.14 |
| TCPLCKTELNIGSKDPPNFNTCTECKNQVCNLCGFNPTPHQTEIQEWLCLNCQTQRA [L41Q] | 0.007 ± 0.17 |
| TCPLCKTELNIGSKDPPNFNTCTECKNQVCNLCGFNPTPHRTEIQEWLCLNCQTQRA [L41R] | 0.2 ± 0.097 |
| TCPLCKTELNIGSKDPPNFNTCTECKNQVCNLCGFNPTPHSTEIQEWLCLNCQTQRA [L41S] | 0.033 ± 0.093 |
| TCPLCKTELNIGSKDPPNFNTCTECKNQVCNLCGFNPTPHTTEIQEWLCLNCQTQRA [L41T] | 0.109 ± 0.13 |
| TCPLCKTELNIGSKDPPNFNTCTECKNQVCNLCGFNPTPHVTEIQEWLCLNCQTQRA [L41V] | 0.044 ± 0.091 |
| TCPLCKTELNIGSKDPPNFNTCTECKNQVCNLCGFNPTPHWTEIQEWLCLNCQTQRA [L41W] | -0.133 ± 0.11 |
| TCPLCKTELNIGSKDPPNFNTCTECKNQVCNLCGFNPTPHYTEIQEWLCLNCQTQRA [L41Y] | 0.081 ± 0.18 |
| TCPLCKTELNIGSKDPPNFNTCTECKNQVCNLCGFNPTPHLAEIQEWLCLNCQTQRA [T42A] | 0.055 ± 0.11 |
| TCPLCKTELNIGSKDPPNFNTCTECKNQVCNLCGFNPTPHLCEIQEWLCLNCQTQRA [T42C] | 0.064 ± 0.14 |
| TCPLCKTELNIGSKDPPNFNTCTECKNQVCNLCGFNPTPHLDEIQEWLCLNCQTQRA [T42D] | -0.015 ± 0.22 |
| TCPLCKTELNIGSKDPPNFNTCTECKNQVCNLCGFNPTPHLEEIQEWLCLNCQTQRA [T42E] | -0.122 ± 0.16 |
| TCPLCKTELNIGSKDPPNFNTCTECKNQVCNLCGFNPTPHLGEIQEWLCLNCQTQRA [T42G] | 0.122 ± 0.1 |
| TCPLCKTELNIGSKDPPNFNTCTECKNQVCNLCGFNPTPHLHEIQEWLCLNCQTQRA [T42H] | 0.123 ± 0.22 |
| TCPLCKTELNIGSKDPPNFNTCTECKNQVCNLCGFNPTPHLIEIQEWLCLNCQTQRA [T42I] | -0.105 ± 0.18 |
| TCPLCKTELNIGSKDPPNFNTCTECKNQVCNLCGFNPTPHLKEIQEWLCLNCQTQRA [T42K] | -0.056 ± 0.18 |
| TCPLCKTELNIGSKDPPNFNTCTECKNQVCNLCGFNPTPHLLEIQEWLCLNCQTQRA [T42L] | -0.091 ± 0.088 |
| TCPLCKTELNIGSKDPPNFNTCTECKNQVCNLCGFNPTPHLMEIQEWLCLNCQTQRA [T42M] | -0.253 ± 0.19 |
| TCPLCKTELNIGSKDPPNFNTCTECKNQVCNLCGFNPTPHLNEIQEWLCLNCQTQRA [T42N] | 0.097 ± 0.39 |
| TCPLCKTELNIGSKDPPNFNTCTECKNQVCNLCGFNPTPHLPEIQEWLCLNCQTQRA [T42P] | -0.137 ± 0.13 |
| TCPLCKTELNIGSKDPPNFNTCTECKNQVCNLCGFNPTPHLQEIQEWLCLNCQTQRA [T42Q] | 0.062 ± 0.16 |
| TCPLCKTELNIGSKDPPNFNTCTECKNQVCNLCGFNPTPHLSEIQEWLCLNCQTQRA [T42S] | -0.011 ± 0.11 |

| Variant | abundance fitness |
| --- | --- |
| TCPLCKTELNIGSKDPPNFNTCTECKNQVCNLCGFNPTPHLVEIQEWLCLNCQTQRA [T42V] | 0.073 ± 0.14 |
| TCPLCKTELNIGSKDPPNFNTCTECKNQVCNLCGFNPTPHLWEIQEWLCLNCQTQRA [T42W] | -0.166 ± 0.13 |
| TCPLCKTELNIGSKDPPNFNTCTECKNQVCNLCGFNPTPHLYEIQEWLCLNCQTQRA [T42Y] | -0.301 ± 0.19 |
| TCPLCKTELNIGSKDPPNFNTCTECKNQVCNLCGFNPTPHLTAIQEWLCLNCQTQRA [E43A] | -0.048 ± 0.16 |
| TCPLCKTELNIGSKDPPNFNTCTECKNQVCNLCGFNPTPHLTDIQEWLCLNCQTQRA [E43D] | -0.096 ± 0.19 |
| TCPLCKTELNIGSKDPPNFNTCTECKNQVCNLCGFNPTPHLTFIQEWLCLNCQTQRA [E43F] | -0.289 ± 0.2 |
| TCPLCKTELNIGSKDPPNFNTCTECKNQVCNLCGFNPTPHLTGIQEWLCLNCQTQRA [E43G] | 0.003 ± 0.11 |
| TCPLCKTELNIGSKDPPNFNTCTECKNQVCNLCGFNPTPHLTHIQEWLCLNCQTQRA [E43H] | -0.671 ± 0.36 |
| TCPLCKTELNIGSKDPPNFNTCTECKNQVCNLCGFNPTPHLTIIQEWLCLNCQTQRA [E43I] | -0.301 ± 0.2 |
| TCPLCKTELNIGSKDPPNFNTCTECKNQVCNLCGFNPTPHLTKIQEWLCLNCQTQRA [E43K] | -0.003 ± 0.27 |
| TCPLCKTELNIGSKDPPNFNTCTECKNQVCNLCGFNPTPHLTLIQEWLCLNCQTQRA [E43L] | -0.398 ± 0.13 |
| TCPLCKTELNIGSKDPPNFNTCTECKNQVCNLCGFNPTPHLTMIQEWLCLNCQTQRA [E43M] | -0.191 ± 0.18 |
| TCPLCKTELNIGSKDPPNFNTCTECKNQVCNLCGFNPTPHLTNIQEWLCLNCQTQRA [E43N] | -0.123 ± 0.38 |
| TCPLCKTELNIGSKDPPNFNTCTECKNQVCNLCGFNPTPHLTQIQEWLCLNCQTQRA [E43Q] | -0.167 ± 0.18 |
| TCPLCKTELNIGSKDPPNFNTCTECKNQVCNLCGFNPTPHLTRIQEWLCLNCQTQRA [E43R] | 0.11 ± 0.13 |
| TCPLCKTELNIGSKDPPNFNTCTECKNQVCNLCGFNPTPHLTSIQEWLCLNCQTQRA [E43S] | -0.2 ± 0.12 |
| TCPLCKTELNIGSKDPPNFNTCTECKNQVCNLCGFNPTPHLTTIQEWLCLNCQTQRA [E43T] | -0.091 ± 0.18 |
| TCPLCKTELNIGSKDPPNFNTCTECKNQVCNLCGFNPTPHLTVIQEWLCLNCQTQRA [E43V] | -0.202 ± 0.11 |
| TCPLCKTELNIGSKDPPNFNTCTECKNQVCNLCGFNPTPHLTWIQEWLCLNCQTQRA [E43W] | -0.09 ± 0.33 |
| TCPLCKTELNIGSKDPPNFNTCTECKNQVCNLCGFNPTPHLTYIQEWLCLNCQTQRA [E43Y] | -0.443 ± 0.32 |
| TCPLCKTELNIGSKDPPNFNTCTECKNQVCNLCGFNPTPHLTEAQEWLCLNCQTQRA [I44A] | -0.022 ± 0.17 |
| TCPLCKTELNIGSKDPPNFNTCTECKNQVCNLCGFNPTPHLTECQEWLCLNCQTQRA [I44C] | 0.026 ± 0.2 |
| TCPLCKTELNIGSKDPPNFNTCTECKNQVCNLCGFNPTPHLTEDQEWLCLNCQTQRA [I44D] | -0.38 ± 0.39 |
